Key:
[1] = biological target: HIV-1 protease, bait PR_v1 (HIV-1 isolate YU2) (UniProt P35963); assay: cell-based or functional assay
[2] = biological target: HIV-1 Integrase (IN), bait IN (HIV-1 isolate YU2) (UniProt P35963); assay: cell-based or functional assay
Chain of HIV-1 Integrase (IN), bait IN (HIV-1 isolate YU2) (P35963 1148-1435 limits assumed): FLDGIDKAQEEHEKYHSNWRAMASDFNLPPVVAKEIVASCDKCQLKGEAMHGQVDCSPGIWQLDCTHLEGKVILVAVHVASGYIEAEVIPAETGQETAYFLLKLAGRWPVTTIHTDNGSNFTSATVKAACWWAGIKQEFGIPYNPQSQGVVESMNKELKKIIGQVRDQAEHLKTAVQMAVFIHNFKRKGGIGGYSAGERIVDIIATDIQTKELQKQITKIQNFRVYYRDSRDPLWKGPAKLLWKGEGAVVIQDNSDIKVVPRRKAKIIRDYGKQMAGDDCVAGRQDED

Chain of HIV-1 protease, bait PR_v1 (HIV-1 isolate YU2) (P35963 489-587 limits assumed): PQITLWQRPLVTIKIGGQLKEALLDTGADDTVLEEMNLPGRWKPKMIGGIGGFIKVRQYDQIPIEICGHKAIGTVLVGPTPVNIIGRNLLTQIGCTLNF

Substance | inhibition of HIV-1 infection (p24 antigen in supernatant) after siRNA against AIM1, HeLa cells with CD4 and CCR5 [1] | inhibition of HIV replication (p24 antigen in supernatant) after siRNA against LEDGF, HeLa cells with CD4 and CCR5 [2]
Human AIM1 (prey030612), Absent in Melanoma, prey fragments, Q9Y4K1 1-2131 | 30% | 
LEDGF p75 isoform (PSIP2), prey fragments (from UniProt O75475 340-417) |  | 84%
